Source: PMC3834822, “Structure of an ‘open’ clamp type II topoisomerase-DNA complex provides a mechanism for DNA capture and transport”

B1: 34mer V-site DNA (dsDNA)
DNA 1: CAAAGGCGGTAATACGGTTATCCACAGAATCAGG
DNA 2: CCTGATTCTGTGGATAACCGTATTACCGCCTTTG
B2: 26mer E-site DNA (dsDNA)
DNA 1: AGGTCATGAATGACTATGCACGTAAA
DNA 2: TTTACGTGCATAGTCATTCATGACCT

Key:
[1] = target: ParE-ParC55 fusion protein (topo IV) (Streptococcus pneumoniae 7785, UniProt Q59961 1-647+P72525:1-488, internal_change); test: X-ray crystallography (3.7 A); 10 mM MgCl2, 2 mM levofloxacin added; drug-free complex; G-gate DNA bent, uncleaved; second linear B-form duplex at C-gate helices (ParC R468, K464, N461, H196); no ATP; Crystallization: protein in 20 mM Tris-HCl pH 7.5, 100 mM NaCl, 1 mM beta-mercaptoethanol, 0.05% Na azide, 10 mM MgCl2, 2 mM levofloxacin; 4I3H reservoir 50 mM; details: protein: recombinant; tags: C-terminal His6; chain copies: 2; 34 bp duplex; 4-bp stagger between cleavage sites
[2] = target: ParE full-length;ParC55 (Streptococcus pneumoniae;Streptococcus …, UniProt Q59961;P72525 1-647;1-488, |); test: X-ray crystallography (6.5 A); 10 mM MgCl2, 2 mM levofloxacin; cleavage complex; Crystallization: protein in 20 mM Tris-HCl pH 7.5, 100 mM NaCl, 1 mM beta-mercaptoethanol, 0.05% Na azide, 10 mM MgCl2, 2 mM levofloxacin; 4I3H reservoir 50 mM; details: protein: recombinant;recombinant; chain copies: 2;2; 26mer duplex; 4-bp stagger between cleavage sites

Binder	binding result [1]	binding result [2]
B1	binds	
B2		binds
